Test results reported in publication PMC4721966.
Blank lines part the entries; values can stand above or below the substance they belong to.

Experiments:
[1] = biological target: Aureochrome 1a from Phaeodactylum tricornutum, full-length protein (PtAu1a_(full)) (Phaeodactylum tricornutum); assay: SEC-MALS; light: pre-incubated at 20°C under continuous blue light (400 µW cm^-2 at 450 nm) for 20 min; 100 µl of 150 µM protein on Superdex 200 10/300 GL in buffer C, RT, column continuously illuminated; monomer-dimer
[2] = biological target: Aureochrome 1a from Phaeodactylum tricornutum, full-length protein (PtAu1a_(full)) (Phaeodactylum tricornutum); assay: SEC-MALS; dark: pre-incubated at 20°C in the dark for 20 min; 100 µl of 150 µM protein on Superdex 200 10/300 GL in buffer C (20 mM HEPES pH 7.5, 100 mM NaCl, 10 mM MgCl2, 5% glycerol), RT, column kept in the dark; monomer-dimer
[3] = biological target: PtAu1aLOV, LOV domain of PtAu1a containing its N- and C-terminal α-helical extensions A´α and Jα (Phaeodactylum tricornutum); assay: MST; dark; Monolith NT.115; 20 nM DY-647-labelled PtAu1aLOV with a 1:2 dilution series of unlabelled PtAu1aLOV; 20 mM HEPES pH 7.5, 100 mM NaCl, 10% glycerol; dimer to monomers
[4] = biological target: PtAu1aLOV, LOV domain of PtAu1a containing its N- and C-terminal α-helical extensions A´α and Jα (Phaeodactylum tricornutum); assay: SEC-MALS; light: pre-incubated at 20°C under continuous blue light (400 µW cm^-2 at 450 nm) for 20 min; 100 µl of 150 µM protein on Superdex 200 10/300 GL in buffer C, RT, column continuously illuminated; monomer-dimer
[5] = biological target: PtAu1a_(bZIP-LOV), truncated PtAu1a variant encompassing the bZIP and LOV domain (Phaeodactylum tricornutum); assay: as above
[6] = biological target: PtAu1a_(bZIP-LOV), truncated PtAu1a variant encompassing the bZIP and LOV domain (Phaeodactylum tricornutum); assay: SEC-MALS; dark: pre-incubated at 20°C in the dark for 20 min; 100 µl of 150 µM protein on Superdex 200 10/300 GL in buffer C (20 mM HEPES pH 7.5, 100 mM NaCl, 10 mM MgCl2, 5% glycerol), RT, column kept in the dark; monomer-dimer
[7] = system: Aureochrome 1a full length (PtAu1afull) (Phaeodactylum tricornutum); assay: EMSA; settings: 10 mM MgCl2, EMSA: 50 nM DNA in buffer C (20 mM HEPES pH 7.5, 100 mM NaCl, 10 mM MgCl2, 5% glycerol) plus 5% glycerol, 20 min at RT, dark or blue light (450 nm), 10% TGE …

- stoichiometry N [1]: 2
- stoichiometry N [2]: 2
Substance: Aureochrome 1a from Phaeodactylum tricornutum, full-length protein (PtAu1a_(full)) (natural protein)

- Kd [3]: 13.6 µM
- stoichiometry N [4]: 2
Substance: PtAu1aLOV, LOV domain of PtAu1a containing its N- and C-terminal α-helical extensions A´α and Jα (domain or fragment)

- stoichiometry N [5]: 2
- stoichiometry N [6]: 2
Substance: PtAu1a_(bZIP-LOV), truncated PtAu1a variant encompassing the bZIP and LOV domain (domain or fragment)

Substance: TGTAGCGTCTGACGTGGTTCCCAC (double strand) [24-bp dsCYC2 promoter probe]
- K half ([7]; continuous blue light, EC50, Hill coefficient 1.65): 90 nM
- K half ([7]; dark, EC50, Hill coefficient 1.35): 860 nM
